Experimental data from patent publication US20260167714A1 (COHERUS BIOSCIENCES, published 2026).

Experiments:
[1] = target: T1, recombinant human ILT4 (LILRB2) (human, UniProt Q8N423 22-460); assay: SPR, Biacore T200, mAb captured on anti-Fc, ILT4 injected, medium resolution, 25 C
T1 construct: Bought protein (Acro Biosystems or R&D Systems); also called ILTR4
Protocol: (§1) Label-free SPR analysis on a Biacore T200 instrument was utilized to measure antibody affinity to ILT4. CM4 sensor chips from Cytiva Inc. were utilized for all medium resolution analyses. Either anti-mouse Fc specific or anti-human Fc specific capture surfaces were prepared using standard amine coupling chemistry. Mouse, Chimera or Humanized mAbs were captured to their respective surfaces and ILT4 was injected across the surfaces from 101 nM to 0.79 nM in a 2-fold serial dilution series at a flow rate of 100 μL/min. The association phase was followed for 90 sec. while the dissociation phase was followed for 1200 sec. due to the medium resolution analysis implemented here. The sensorgrams were double-referenced and fit globally to a 1:1 interaction model with a term included for mass transport, and the equilibrium dissociation constant was calculated as KD=koff/kₒₙ. […] All kinetic experiments were performed at 25° C. in a buffer consisting of Hepes-buffered saline, pH 7.4, with 0.05% polysorbate 20 (HBS-P+) and 100 μg/ml Bovine Serum Albumin (BSA).

[2] = target: T2, human ILT4 expressed on cells (human, UniProt Q8N423 22-597); assay: flow cytometry blocking assay: ILT4-expressing CHO cells preincubated with antibody, then PE-HLA-G; HLA-G binding MFI falls from about 105000 (no antibody) to near 0
T2 construct: whole, on cells; also called CHO-S/ILT4 cells; ILT4-CHO cells
T2 sequence (Q8N423 22-597): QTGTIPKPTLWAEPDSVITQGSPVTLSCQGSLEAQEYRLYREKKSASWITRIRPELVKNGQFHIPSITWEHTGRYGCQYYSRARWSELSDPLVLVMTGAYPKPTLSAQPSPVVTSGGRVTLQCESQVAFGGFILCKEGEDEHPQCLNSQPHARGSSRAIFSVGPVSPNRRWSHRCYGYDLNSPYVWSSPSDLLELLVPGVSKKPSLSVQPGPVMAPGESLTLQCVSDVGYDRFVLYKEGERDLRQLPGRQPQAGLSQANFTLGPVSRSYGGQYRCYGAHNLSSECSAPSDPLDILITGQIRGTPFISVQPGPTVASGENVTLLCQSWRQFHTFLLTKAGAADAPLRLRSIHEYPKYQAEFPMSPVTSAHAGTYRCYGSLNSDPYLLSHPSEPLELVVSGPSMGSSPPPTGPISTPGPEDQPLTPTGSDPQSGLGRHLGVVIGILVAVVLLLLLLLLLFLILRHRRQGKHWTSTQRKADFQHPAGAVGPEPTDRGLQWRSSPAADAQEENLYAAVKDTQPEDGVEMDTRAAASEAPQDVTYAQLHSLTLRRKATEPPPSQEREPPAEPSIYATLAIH
Protocol: (§2) In the second blocking experiment, the primary antibody dilutions were made by diluting antibody to 15 μg/ml in FACS buffer. Three independent sets of eleven 2.5-fold serial dilutions were then made in FACS buffer from 15 μg/ml to 0.002 μg/ml. Each dilution set was handled independently, and 50 μl from each was added to cells in duplicate. Control wells received FACS buffer with no antibody. Wells were mixed and incubated for 30 minutes at 4 degrees C. Cells were washed twice in FACS buffer.
(§3) In both blocking experiments, phycoerythrin (PE)-conjugated HLA-G tetramer was diluted in FACS buffer to 5 μg/ml and 100 μl per well was added to cells. Cells were incubated at 4 degrees C. for 30 minutes, washed twice in FACS buffer, and resuspended in 250 μl FACS buffer with 0.1 μg/ml propidium iodide.
(§4) Cells were acquired on an Attune flow cytometer, with 5000 propidium iodide-negative cells collected per sample, and MFI was recorded. Relative blocking activity was calculated with the following formula: 100−(Sample MFI−Background MFI)/(Top MFI−Background MFI)*100. Prism software (Graphpad) was used to plot MFI and relative blocking activity for each sample. The blocking potency for each antibody, represented as IC₅₀, was calculated with Prism software.

[3] = target: T1, recombinant human ILT4 (LILRB2); assay: SPR, Biacore T200, medium resolution; koff held at its limit of 4.27e-5 s^-1; koff held at the limit, 1200 s of dissociation
Protocol: as §1

[4] = target: T2, human ILT4 expressed on cells; assay: flow cytometry, blockade of PE-HLA-G tetramer (5 µg/ml) binding to CHO-S/ILT4 cells, experiment 2
Protocol: as §2, §3, §4

[5] = target: T2, human ILT4 expressed on cells; assay: cell-based or functional assay
[6] = target: T1, recombinant human ILT4 (LILRB2); assay: SPR, Biacore T200, medium resolution; koff held at its limit of 4.27e-5 s^-1
Protocol: as §1

[7] = target: T1, recombinant human ILT4 (LILRB2); assay: SPR, high resolution kinetics, triplicate
[8] = target: T2, human ILT4 expressed on cells; assay: flow cytometry, blockade of PE-HLA-G tetramer (5 µg/ml) binding to CHO-S/ILT4 cells, experiment 1
[9] = target: T2, human ILT4 expressed on cells; assay: as above; remark: listed apart in the source
[10] = target: T2, human ILT4 expressed on cells; assay: flow cytometry on ILT4-CHO cells, unlabelled mAb titrated; competitor AF647-Hz156.03-LALA
Protocol: (§5) Competition binding assays were performed. […] Binding activities were measured by flow cytometry.
Anti-human ILT4 mAbs at various concentrations (0-15 μg/ml) were incubated with ILT4-CHO cells. Cells were washed and stained with AF647-Hz156.03-LALA. Cells were analyzed by flow cytometry.

[11] = target: T1, recombinant human ILT4 (LILRB2); assay: SPR, high resolution kinetics, triplicate; 95% CI in parentheses
[12] = target: T2, human ILT4 expressed on cells; assay: flow cytometry on ILT4-CHO cells, unlabelled mAb titrated; competitor AF647-Hz45.01-LALA
Protocol: as §5
Anti-human ILT4 mAbs at various concentrations (0-15 μg/ml) were incubated with ILT4-CHO cells. Cells were washed and stained with AF647-Hz45.01-LALA. Cells were analyzed by flow cytometry.

[13] = target: T2, human ILT4 expressed on cells; assay: cell-based or functional assay; remark: listed apart in the source
[14] = target: T2, human ILT4 expressed on cells; assay: flow cytometry, blockade of PE-HLA-A tetramer (5 ug/ml) binding to ILT4-CHO cells, Experiment 3 (table title prints HLA-G)
[15] = target: T2, human ILT4 expressed on cells; assay: flow cytometry, blockade of PE-HLA-G tetramer binding to ILT4-CHO cells, Experiment 2
[16] = target: T2, human ILT4 expressed on cells; assay: flow cytometry, blockade of PE-HLA-G tetramer binding to ILT4-CHO cells, Experiment 3
[17] = target: T2, human ILT4 expressed on cells; assay: flow cytometry, blockade of PE-HLA-G tetramer binding to ILT4-CHO cells, Experiment 1
[18] = target: T2, human ILT4 expressed on cells; assay: cell-based or functional assay; remark: listed apart in the source
[19] = target: T2, human ILT4 expressed on cells; assay: flow cytometry, blockade of PE-HLA-A tetramer (5 ug/ml) binding to ILT4-CHO cells, Experiment 1 (table title prints HLA-G)
[20] = target: T2, human ILT4 expressed on cells; assay: flow cytometry, blockade of PE-HLA-A tetramer (5 ug/ml) binding to ILT4-CHO cells, Experiment 2 (table title prints HLA-G)

T1 sequence (Q8N423 other isoform, or with tags, fused parts or gaps limits assumed): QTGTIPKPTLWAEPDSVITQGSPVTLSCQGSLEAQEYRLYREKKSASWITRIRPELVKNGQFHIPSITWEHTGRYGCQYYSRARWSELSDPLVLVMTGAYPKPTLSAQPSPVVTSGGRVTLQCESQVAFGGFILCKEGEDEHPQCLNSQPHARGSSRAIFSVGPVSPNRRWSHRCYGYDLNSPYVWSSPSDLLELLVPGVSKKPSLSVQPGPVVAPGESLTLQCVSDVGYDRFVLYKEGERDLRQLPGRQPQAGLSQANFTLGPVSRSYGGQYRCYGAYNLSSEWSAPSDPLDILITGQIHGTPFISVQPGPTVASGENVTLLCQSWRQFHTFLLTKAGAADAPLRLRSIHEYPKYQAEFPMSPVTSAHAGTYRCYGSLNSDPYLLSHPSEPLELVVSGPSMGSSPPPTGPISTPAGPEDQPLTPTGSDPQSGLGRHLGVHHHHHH

B1: L156S3 (antibody, IgG2a, V domains shown)
VH: QVQLKQSGAELVRPGASVKLSCRASGYTFTDYYMNWVKQRPGQGLEWIARIYPGVYRTHYNEKFKDKATLTAEKSSSTAYMELSSLTSEDSAVYFCARSGYYGGTYEEDAMDYWGQGTSVTVSS
VL: DIQMTQSPASLSVSVGETVTITCRASENIYSNLAWYQQKQGKSPQLLVYAATSLADGVPSRFRGSGSGTQYSLKISSLQSEDFGNYYCQNFWDTPYTFGGGTKLEIK
notes: also called mouse anti-human ILT4 antibody L156S3
[1]
  kon: 269000 M⁻¹ s⁻¹
[2]
  IC50: 0.088 µg/mL
[3]
  koff: ≤ 4.27e-05 s⁻¹
[4]
  IC50: 0.113 µg/mL
[5]
  IL-6 secretion by LPS-stimulated M2 macrophages (MSD), fold over control: 2 fold
[6]
  Kd: ≤ 0.16 nM

B2: J19h1 (antibody, V domains shown)
VH: QITLKESGPTLVKPTQTLTLTCTFSGFSLNTYAMGVSWIRQPPGKALEWLASIWWNGNKYNNPSLKSRLTVTKDTSKNQVVLTMTNMDPVDTATYYCAHSRIIRFTDYVMDAWGQGTLVTVSS
VL: DIQMTQSPSSLSTSVGDRVTITCRASEDIYNDLAWYQQKPGKAPKLLIYNANSLHTGVASRFSGSGSGTDFTFTISSLQPEDVATYFCQQYYDYPLTFGQGTKLEIKR
[7]
  Kd: 0.85 nM
  koff: 0.00433 s⁻¹
[8]
  fold decrease of PE-HLA-G MFI: ≤ 22 fold
[2]
  IC50: 0.233 µg/mL
[9]
  IC50: 0.13 µg/mL
[10]
  IC50: 0.0796 µg/mL
[4]
  IC50: 0.216 µg/mL
[11]
  kon: 5.11e+06 M⁻¹ s⁻¹
[12]
  IC50: 0.182 µg/mL
[5]
  IL-6 secretion, fold over control, Donor A: 3 fold
  IL-6 secretion, fold over control, Donor B: 2 fold
  TNF-α secretion, fold over negative control: 8 fold

B3: 1E1 (antibody, V domains shown)
VH: QVQLQQWGAGLLKPSETLSLTCAVYGGSFSGYYWSWIRQPPGKGLEWIGEINHSGSTNYNPSLKSRVTISVDTSKNQFSLKLSSVTAADTAVYYCARLPTRWVTTRYFDLWGRGTLVTVSS
VL: QSVLTQPPSVSGAPGQRVTISCTGSSSNIGAGYDVHWYQQLPGTAPKLLIYGNSNRPSGVPDRFSVSKSGASASLAITGLQAEDEADYYCQSFDNSLSAYVFGGGTQLTVL
[7]
  Kd: 5.5 nM
  koff: 0.00895 s⁻¹
[8]
  fold decrease of PE-HLA-G MFI: ≤ 30 fold
[13]
  EC50 value of IL-6 production, donor 4: 0.00374 µg/mL
  EC50 value of IL-6 production, donor 5: 0.0139 µg/mL
[2]
  IC50: 0.096 µg/mL
[9]
  IC50: 0.13 µg/mL
[10]
  IC50: 0.336 µg/mL
[14]
  IC50: 0.0956 µg/mL
[4]
  IC50: 0.075 µg/mL
[11]
  kon: 1.62e+06 M⁻¹ s⁻¹
[12]
  IC50: 0.171 µg/mL
[15]
  IC50: 0.162 µg/mL
[16]
  IC50: 0.151 µg/mL
[17]
  IC50: 0.194 µg/mL
[18]
  EC50 value of TNFa production, donor 4: 0.00877 µg/mL
  EC50 value of TNFa production, donor 5: 0.0235 µg/mL
[19]
  IC50: 0.102 µg/mL
[20]
  IC50: 0.107 µg/mL
